From paper PMC3931528

Molecular target: PTB RRM1 (UniProt P26599 41-163)
Test: ITC

PTB RRM1, sequence (P26599 41-163): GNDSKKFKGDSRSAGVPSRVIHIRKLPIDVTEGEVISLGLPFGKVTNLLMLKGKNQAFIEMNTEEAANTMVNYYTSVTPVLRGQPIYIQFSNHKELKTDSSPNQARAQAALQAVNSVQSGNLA

With UCUCU (ssRNA) [CU 5-mer RNA] the Kd was 24.7 µM.
